Measurements from the DeepSol protein solubility set.

Experiment: soluble on expression in E. coli; label from the status in PepcDB or PDB records

| Sequence | soluble on expression in E. coli |
| --- | --- |
| MAYSYTEKKRIRKDFSKLPDVMDVPYLLAIQLDSYREFLQAGATKEQFRDVGLHAAFKSVFPIISYSGNAALEYVGYRLGEPAFDVKECVLRGVTFAVPLRVKVRLIIFDRESSNKAIKDIKEQEVYMGEIPLMTENGTFIINGTERVIVSQLHRSPGVFFDHDRGKTHSSGKLLYSARIIPYRGSWLDFEFDPKDCVFVRIDRRRKLPASVLLRALGYSTEEILNAFYATNVFHIKGETLNLELVPQRLRGEVASIDIKDGSGKVIVEQGRRITARHINQLEKAGVSQLEVPFDYLIGRTIAKAIVHPATGEIIAECNTELTLDLLAKVAKAQVVRIETLYTNDIDCGPFISDTLKIDNTSNQLEALVEIYRMMRPGEPPTKEAAETLFGNLFFSAERYDLSAVGRMKFNRRIGRTEIEGPGVLSKEDIIDVLKTLVDIRNGKGIVDDIDHLGNRRVRCVGEMAENQFRVGLVRVERAVKERLSMAESEGLMPQDLINAKPVAAAIKEFFGSSQLSQFMDQNNPLSEITHKRRVSALGPGGLTRERAGFEVRDVHPTHYGRVCPIETPEGPNIGLINSLATYARTNKYGFLESPYRVVKDSLVTDEIVFLSAIEEADHVIAQASATLNEKGQLVDELVAVRHLNEFTVKAPEDVTLMDVSPKQVVSVAASLIPFLEHDDANRALMGSNMQRQAVPTLRADKPLVGTGMERNVARDSGVCVVARRGGVIDSVDASRVVVRVADDEVETGEAGVDIYNLTKYTRSNQNTCINQRPLVSKGDVVARGDILADGPSTDMGELALGQNMRVAFMPWNGFNFEDSICLSERVVQEDRFTTIHIQELTCVARDTKLGPEEITADIPNVGEAALNKLDEAGIVYVGAEVQAGDILVGKVTPKGETQLTPEEKLLRAIFGEKASDVKDTSLRVPTGTKGTVIDVQVFTRDGVERDSRALSIEKMQLDQIRKDLNEEFRIVEGATFERLRAALVGAKAEGGPALKKGTEITDDYLDGLERGQWFKLRMADDALNEQLEKAQAYISDRRQLLDDKFEDKKRKLQQGDDLAPGVLKIVKVYLAIKRRIQPGDKMAGRHGNKGVVSVIMPVEDMPHDANGTPVDIVLNPLGVPSRMNVGQILETHLGLAAKGLGEKINRMLEEQRKVAELRKFLHEIYNEIGGREENLDELGDNEILALAKNLRGGVPMATPVFDGAKEREIKAMLKLADLPESGQMRLFDGRTGNQFERPTTVGYMYMLKLNHLVDDKMHARSTGSYSLVTQQPLGGKAQFGGQRFGEMEVWALEAYGAAYTLQEMLTVKSDDVNGRTKMYKNIVDGDHRMEAGMPESFNVLIKEIRSLG | not soluble |
| MAYWLFKTEPDTFSIDTLRTQKVSCWEGVRNYQARNMMRDQVKVGDFVLIYHSSCKNVGVAGIAKVVREAYPDHFQFDPESDYYDPKSDPDNPRWIMVDIEFVRKTARVIPLSVMKAMPELENMPLVKRGNRLSIMPVTEDEWEAILGKEKLPSQRLEHHHHHH | soluble |
| MCDKLGGVAIAVQGALFEHNERRQLGDGAFIDIRSGWLTGGEELLDALLSTVPWRAERRQMYDRVVDVPRLVSFHDLTIEDPPHPQLARMRRRLNDIYGGELGEPFTTAGLCYYRDGSDSVAWHGDTIGRGSTEDTMVAIVSLGATRVFALRPRGRGPSLRLPLAHGDLLVMGGSCQRTFEHAVPKTSAPTGPRVSIQFRPRDVR | not soluble |
| MCEQCGKCKCGECTAPRTLPSCLACNRQCLCSAESMVEYGTCMCLVKGIFYHCSNDDEGDSYSDNPCSCSQSHCCSRYLCMGAMSLFLPCLLCYPPAKGCLKLCRRCYDWIHRPGCRCKNSNTVYCKLESCPSRGQGKPSLEHHHHHH | not soluble |
| MCFSPEDRKKTDHLLALDGAKERLKLFKADLLDEGSFELAIDGCETVFHTASPVAITVKTDPQVELINPAVNGTINVLRTCTKVSSVKRVILTSSMAAVLAPETKLGPNDVVDETFFTNPSFAEERKQWYVLSKTLAEDAAWRFAKDNEIDLIVLNPGLVTGPILQPTLNFSVAVIVELMKGKNPFNTTHHRFVDVRDVALAHVKALETPSANGRYIIDGPVVTIKDIENVLREFFPDLCIADRNEDITELNSVTFNVCLDKVKSLGIIEFTPTETSLRDTVLSLKEKCLV | soluble |
| MCISKIDMAKVKKFFKEYLFAKFQCKNRELYRQLKDYDPKDDQKYLKWEHFVEYVEQVLEALDKTSAQIIKEIYIQNKRICELPYSYSTYYAYRKKAIIELLAYLDLKI | soluble |
| MCKMEITDLIKGMESANVSDIYIFLHEDGPVAFDASAAHLLCYFPEMEMESVFCSDSKRHRIIQGFALEPVLERLAQYPCLVDDDCIRIMGVL | not soluble |
| MCLAIPMQIESIDGFTARCAAKGVWRDVSLFMMQDAPPEVGDFVMVHVGYAIQKVTEADARSAWELLDQILEENGA | not soluble |
| MCTQDEECSAPGGDKGKEKEEHTVVPRGKEEKEKKPGTKPSPISPAFKGTPKERPNCGKTKNETSGKKLRSNDVSPDVKDRLQLSEHGPSKTCIKDFQWLEDFITKMPCFHGFIGREDLMSVLKNVGDFLIRTSVQPNKHEVEKMKKNQADVKVLGNLSREKCAKKEKEKEEKLAGMGDVGRREFVISVYCKDKEKPATDKPQYTPIRNLVIKRDNGMVHVEPLRKFKTLTEFFGYYQKNSGICKETDFQLITPIPLSNWEFIHEDIALQQKKLGEGAFGEVRIGKMKLKSTKKTVEVAVKMLRNAEVVIREQVGELLHEARVMRMMDHKNVLRSYGIAVLKEPLYLMTEMCACGALREYLRENQETVTLAEKLFFVVGSSRGVQYLHSQKTIHRDLAVRNILLSEDRTPKISDFGLAKISERYEMKEQCKIPVRYLAPETLESFIFTTKTDVFSFGCVIWEIYENGNQPHDGKNAQTIRNLTKKNQFLKLTNSAPSELRKLIEERVFTSDPENRCSMTTIVQCAEKIEKPPVGMK | not soluble |
| MCTRVVYSGSNGMVATGRSMDWKTDMHSNLWVFPRGMKRNGETGENSLEWTSRYGSVVTSAFEIASTDGMNEKGLVANLLWLPETEYPVRDKNKPGLAITAWVQYMLDNFATVEEAVAYIDEDTFQVVSDMMPDGSRLATLHLSISDATGDCAIFEYIGGKLTVYHSKEYKVMTNSPTYNKQLALSEYWKSIGGLSFLPGTNRAADRFARASFYINALPETDDERIAVASVFSVVRNASVPYGISTPESPEISTTQWRTVSESKNLRYFFESSLTPNTFWVNLKDFDLSEGAPVFKLSIANGEMYHGNTAKNFKTALPFKFMGVKG | not soluble |
| MDANEFHWLMDMLESVEVGLVVLDLDFHVQAWNGFMEHHSGITARQIRDKVLFEVFPDIPEAWLTRKVDAVAMLNTRAFTSWEQRPYLFKFRNTRPITGTEEYMFQNLTISPITAPNGEVEKVCLLVYDVTEFASSKRALERANEQLAKLSMTDRLTGLLNRGTWENLVDAEYERFRRYGQATSLVMFDIDHFKPVNDTYGHLAGDEVIRHTADVTRNNIRQSDSAGRYGGEEFGIILPETDAESARVICERIREAIEKSTVSTSAGDIQYTVSMGIAQLTETPENYMQWMQKADEALYKAKESGRNKVVVSLEHHHHHH | soluble |
| MDAVDATMEKLRAQCLSRGASGIQGLARFFRQLDRDGSRSLDADEFRQGLAKLGLVLDQAEAEGVCRKWDRNGSGTLDLEEFLRALRPPMSQAREAVIAAAFAKLDRSGDGVVTVDDLRGVYSGRAHPKVRSGEWTEDEVLRRFLDNFDSSEKDGQVTLAEFQDYYSGVSASMNTDEEFVAMMTSAWQL | not soluble |
| MDCKELARIFYALSEPKRLCMVKLLLEREELCVCDFMRIFKESQPKISFHLKVLREAGLVTSQKRGKWNYYRLNKEAPVIPCVEKLLKDVKLEEKIQLEVKR | soluble |
| MDDATEQEVFNRMQMTQFEEKRFELVVIRAEDTVVVEPLRQRETCPKCHQILSSELSRLWHQFVHMDAYNGFLDGKFQIQLPDFEFVIPCPFSTCSLLFLDLIDARFHYLLEHQSCQLFCCGVRFSDYKTALEHLQGTGSVETEAWDQQKHFLKPVYICNCCNRTWSSRNEYVAHLHGRDHMCPDPVCKYIFETNEKCIRHFFEQHYKHLFLDSRHLLLNYKYFLRYQEKQEERAYGLYVCTTCQRRFRDNKGFQSHVASQNCEFFDRKFFVQVIACKCGHQFKYCYYQRDVLLRNLPVLREAMEHVEREAPFNNMPEDVCNIYRSIIVVIIDVNQRLINEKFTNYQRTSPLKHSSFTPRQMAKLLLEVVDYFWKIM | not soluble |
| MDDEEKDMADSFQNEVPAARVNIKLDLHTGNAKKKVELPLKLLAVGDYSNGKEQRPLSERDKVDINKNNFNSVMAEFSPAVNLTVEDTLNGNGNEQNIALEFKSLKDFEPEQVAKNIPQLRVLLAMRNLLRDLKSNLLDNATFRRELENILKDPTLSSELRDELAKIAPQENV | soluble |
| MDEEKDLAQRKKEAAERAKQLARERLAARQADEQARSAAETGSLKTPPNSNGSQTETTKGEATEPASANDLALAKKRAAEEARAKAAQLRRQGEAAASGAATGDDLEAAKRKAAEEARAKAAQLRRQREAAAPGAATGDDLEAAKRKAAEEARARAAELRRQREAAESGAEDDLELAKKKAVAAAKARAAALAKQKAAEASGDDDELAKQKAAAAAKAKAAAAAKARAAALAKQQGGAGDEGAKQKAAAAARAKAEETDGGTGRSAAPSPNDPLLEKYVRIIHEHLGSDVLEDAYINRLAKDVPTLVVKKEAYYKVAELLKGHEQLRFDYLSELHGTDFQTHMEVYVHLYSYPNRHPVALKVKIERDNPEVDSLVPLWPGANWPECEAYDLLGIRFRGHPNLIRIFLGEQWVGHPLRKDYEPYDAEV | not soluble |
| MDESIDDVQETRTIAIPLKDSHEDEVIEINCSELPDGEEVLQILEAEEAKLSYWIEVALEYYRQDRVDLFMMILESAGSRAGLEYEGVKQDQMRALDILAAYWMTQGYREKAKDKKSDFFSKATVLFNTADKIAMYEWSHLTVRAWFYLFERDKSTNKYELADQQFNYVVKTNPKNVLPLIGKAVIAFNKKDYKTAIYYFRKAIRQCRHTIADLRVGIGHCFAKMGMMDKAKTAFERAMEIEPYNVSAMCGLGIILLNTYDHDSLKHAVSLFGRSYNLQTDHPVALIHLANHFFFKKEIERAWTLAWHAATYNDCDSIKAEAFYQMGRCRHAQGQFDGAYKYYYQARQANNGEHTLAHYGLGQMYIHRNEIEEAIKCFDTVHKRLPNNTDTMKILGSLYAHVQLNDPAQTAEARQKGRDVLGKYLAVENDDYEACIDLAQLLEATDPKRSLELYENAIDLLVTNESIQPQPEMLNNVGALYMSMKQYEKAEHHFKRAKERLEEQLNTDEGSLLLERRSAPEKSHLLTIRYNLALCLEHLCRTVEAEQMYKDIVKECPGYIDGYLRLGCITRDRHQVYESSLWLKQGVQFDQASPIVWTLIGNLHFAKNEWMPAQKKFEFILSKIFNNKIPDPYSLVALGNVWFEQLLNPSRKKEDEKKYIDRALQMYQKALKLQPKNMYAANGIGCVLAYKRNWNDARDVFSQVRESTSEFYDVWLNIAHVCMEREQWMAAVQMYSSAMKKFRKENDSTLQHYLAKAYYRANMLNEAKEALECAMLDQLDNTQLKFNYAIVLKKSAKEVLRGHKMTSEQVTAAIDDLKFADKIFQYISKNDDRQSSHTGMRISRTICAEEAKNCKDLLTQAKHKLAAAQTQDEEERRLMEKQEKEKIALQNKMIEEARAKEEAEKQKLEDMKNLRLSFIEMTKDVLRLPEIVEEKRRGGGGRKRRNDDGDEFVNDSSDAGNYDGEEGGEDGERRERRKKDKAAKKASRKKRERRDSGGPDSNRRDEKKRKRKEERDRKLQEKLSAKQSAKIKSRAFLSSSESSDDDKPKPAADSSDDEVDPRPPVDEFDSPTRTDSDSDRETTTKKKKKKAVVDSDEGSVSGSGSGSDNDDKPIIGGSDDDDDDKPAGGNSRDSDGSDAPKKKVIESDSD | not soluble |
